The record followed here is paper PMC2943043 (Journal of neuroimmunology, 2010).

The target in this assay is Human recombinant voltage-dependent anion channel (human, UniProt P21796 1-283). Kind of assay: radioligand binding.
Sequence of Human recombinant voltage-dependent anion channel (P21796 whole entry): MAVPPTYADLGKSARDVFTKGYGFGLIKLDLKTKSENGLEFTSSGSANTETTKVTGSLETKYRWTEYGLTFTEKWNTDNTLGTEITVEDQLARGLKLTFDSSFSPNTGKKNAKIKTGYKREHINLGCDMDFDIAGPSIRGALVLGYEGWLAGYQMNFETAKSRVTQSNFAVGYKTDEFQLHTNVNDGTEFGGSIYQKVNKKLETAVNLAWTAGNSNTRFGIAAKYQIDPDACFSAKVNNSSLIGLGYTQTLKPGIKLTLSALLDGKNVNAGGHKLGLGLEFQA

For the molecule MIAAQLLAYYFTELKDDQVKKC [HK-I peptide Met1-Lys21 (P2)], the binding result is “binds”.
